# Source: patent publication US5574007A, “Polypeptide capable of interacting with thrombin” (Asahi Kasei Kogyo Kabushiki Kaisha, priority 1990, dated 1996)
# B1: polypeptide comprised of the 366th to 442nd amino acid residues of human thrombomodulin: deletion polypeptide expressed in COS-1 cells using vector pSV2 (protein)
# chain: VDPCFRANCEYQCQPLNQTSYLCVCAEGFAPIPHEPHRCQMFCNQTACPADCDPNTQASCECPEGYILDDGFICTDI
# B2: E456GlaAsp: polypeptide from PTTM2 CHO cells transfected with pSV2PTTMM6 (prothrombin leader), gamma-carboxyglutamic acid confirmed (protein)
# chain: PVEDPCFRANCEYQCQPLNQTSYLCVCAEGFAPIPHEPHRCQMFCNQTACPADCDPNTQASCECPEGYILDDGFICTDIDECENGGFCSGVCHNLPGTFECICGPDSALVRHIGTDC
# modifications: gamma-carboxyglutamic acid (Gla) in place of the Glu inserted before Asp367 (third residue of the purified polypeptide, where Edman degradation detected no amino acid); Gla confirmed by amino acid anal
# B3: E45: polypeptide of the 367th to 442nd amino acid residues of human thrombomodulin (pSV2TMD9) (protein)
# chain: DPCFRANCEYQCQPLNQTSYLCVCAEGFAPIPHEPHRCQMFCNQTACPADCDPNTQASCECPEGYILDDGFICTDI
# B4: polypeptide comprised of the 407th to 480th amino acid residues of human thrombomodulin: deletion polypeptide expressed in COS-1 cells using vector pSV2 (protein)
# chain: FCNQTACPADCDPNTQASCECPEGYILDDGFICTDIDECENGGFCSGVCHNLPGTFECICGPDSALVRHIGTDC
# Experiments:
# thrombin = thrombin (Homo sapiens, UniProt P00734); assay: Capability of binding to thrombin of thrombomodulin deletion polypeptides; settings: expressed in COS-1 cells, purified
# [1] = target: T1, thrombin-catalyzed activation of protein C (Homo sapiens, UniProt P00734); assay: Activated protein C formation against reaction time with purified polypeptide (Example 4-(6)); format: biochemical
# T1 construct: are added 50 μg/ml protein C, 5 nM thrombin and 5 nM of each of the purified polypeptides
# Procedure: To 0.02M Tris-HCl buffer (pH 8.5) containing 0.1M NaCl, 0.5 mM CaCl2 and 10 mg/ml BSA are added 50 μg/ml protein C, 5 nM thrombin and 5 nM of each of the purified polypeptides of the present invention, and reacted at 37° C. To each of the reaction mixtures are added 300 μg/ml antithrombin III (manufactured and sold by Sigma Chemical Company, U.S.A.) and 5 mM EDTA to terminate the reaction. Then, the amount of the activated protein C produced by the reaction is determined by the method described in Example 1-(3) in which a synthetic substrate is used.
# [2] = target: T2, thrombin-catalyzed conversion of fibrinogen to fibrin (Homo sapiens, UniProt P00734); assay: Anticoagulating activity: clotting time of a fibrinogen solution; format: biochemical; settings: 0 to 50 nM polypeptide, 10 nM thrombin; polypeptide from COS-1 or CHO cells
# T2 construct: Then, 10 nM thrombin is added to the mixture
# Procedure: The activity of each of the polypeptides of the present invention to inhibit the thrombin-catalyzed conversion of fibrinogen to fibrin so as to inhibit blood coagulation, is determined by measuring clotting time using Coagulometer KC-10A (manufactured and sold by Heinrich Amelung A.G., Germany). Illustratively stated, to 0.05M Tris-HCl buffer (pH 7.5) containing 5 mM CaCl2 and 0.1M NaCl is added 3.0 μg of fibrinogen (Fraction I, manufactured and sold by Sigma Chemical Company, U.S.A.). To the resultant mixture is added 0 to 50 nM of each of the purified polypeptides of the present invention. Then, 10 nM thrombin is added to the mixture in such an amount that the total amount of the mixture becomes 0.4 ml, and then the coagulation time of the mixture is measured.
# [3] = system: thrombin-catalyzed platelet aggregation; assay: Platelet aggregation-inhibiting activity (Platelet Rich Plasma, HEMA TRACER IV); format: cell-based; settings: polypeptide in molar amount equal to or more than thrombin; polypeptide from COS-1 or CHO cells
# Procedure: The activity of each of the polypeptides of the present invention to inhibit the thrombin-catalyzed platelet aggregation is evaluated using platelet aggregation measuring apparatus HEMA TRACER IV (manufactured and sold by NIKO Bioscience, Inc., Japan). Measurement is carried out according to the manual attached thereto. When 40 μl of a 20 NIH unit/ml thrombin solution (manufactured and sold by SIGMA Chemical Co., U.S.A., T 6759) is added to 180 μl of a Platelet Rich Plasma (PRP) platelet solution (3×10^5 cells/μl) and incubated, the aggregation of platelets occurs. […] The aggregation of platelets is determined on the basis of the transparency, assuming the transparency of Platelet Poor Plasma (PPP) solution as 100%. The ratio of platelet aggregation is plotted against the incubation time (0 min: the time when thrombin or a mixture of thrombin and one of the polypeptides is added to the PRP solution). It is confirmed that the platelet aggregation is inhibited when one of the polypeptides of the present invention is added.
# [4] = target: T1, thrombin-catalyzed activation of protein C; assay: Activity to promote the activation of protein C (Example 9-(4)); format: biochemical
# Procedure: With respect to the polypeptide purified in Example 9-(3), the activity to promote the activation of protein C is measured according to the following method. That is, 10 μl of a peptide solution (10 nM), 10 μl of thrombin (15 nM), 10 μl of protein C (3.2 μM), 10 μl of 10×Assay buffer [0.5M Tris HCl (pH 7.5) containing 1% BSA, 1M NaCl and 20 mM CaCl2 ] and 60 μl of distilled water are mixed together. The mixture is reacted at 37° C. for one hour, and antithrombin III and hepalin are added at final concentrations of 100 nM and lu/ml, respectively, thereby stopping the reaction. To measure the concentration of activated protein C, the concentration of AMC ([…]) liberated from a 200 μM substrate of Boc-Leu-Ser-Thr-Arg-MCA in a buffer containing 0.05M Tris HCl (pH 8.0) and 0.1M CsCl is measured at an excitation wavelength of 380 nm and a measuring wavelength of 440 nm.
molecule,measurement,setting,value
B1,capability of binding to thrombin (in words),thrombin,had the capability of binding to thrombin
B2,amount of activated protein C with reaction time (in words),"[1]; 5 nM polypeptide, 5 nM thrombin, 50 μg/ml protein C, 37° C., polypeptide from COS-1 or CHO cells",increased with the lapse of reaction time
same,"amount of protein C activated, larger than in the presence of E456Glu",[1]; 30 min after the polypeptide addition,80%
same,clotting time of fibrinogen solution against amount of polypeptide (in words),[2],the longer the clotting time
same,thrombin-catalyzed platelet aggregation (in words),[3],inhibited
B3,activity relative to that of the 114-amino acid polypeptide,[4],about one-tenth
same,production of activated protein C,"[4]; peptide solution 10 nM, thrombin 15 nM, protein C 3.2 μM, 37° C., one hour",1.7 pmol
B4,capability of binding to thrombin (in words),thrombin,had the capability of binding to thrombin
